Experimental data taken from patent US9549967B2, “Regulation of sodium channels by PLUNC proteins” (The University of North Carolina at Chapel Hill, priority 2009, dated 2017).

Assays:
[1] = molecular target: ENaC endogenous to primary human bronchial epithelial cultures (human) (UniProt P37088); experiment: cell-based or functional assay
[2] = molecular target: αβγENaC expressed in Xenopus laevis oocytes (rat) (UniProt P37089); experiment: cell-based or functional assay
[3] = molecular target: T1, ENaC containing the βS518C mutant (Rattus norvegicus, UniProt P37089+P37090+P37091, S518C); experiment: Oocyte current of ENaC containing the βS518C mutant with MTSET; format: cell-based; conditions: addition of MTSET
T1 construct: expressed in transfected cells; host or cells: Xenopus oocytes
T1 sequence (P37089 1-698): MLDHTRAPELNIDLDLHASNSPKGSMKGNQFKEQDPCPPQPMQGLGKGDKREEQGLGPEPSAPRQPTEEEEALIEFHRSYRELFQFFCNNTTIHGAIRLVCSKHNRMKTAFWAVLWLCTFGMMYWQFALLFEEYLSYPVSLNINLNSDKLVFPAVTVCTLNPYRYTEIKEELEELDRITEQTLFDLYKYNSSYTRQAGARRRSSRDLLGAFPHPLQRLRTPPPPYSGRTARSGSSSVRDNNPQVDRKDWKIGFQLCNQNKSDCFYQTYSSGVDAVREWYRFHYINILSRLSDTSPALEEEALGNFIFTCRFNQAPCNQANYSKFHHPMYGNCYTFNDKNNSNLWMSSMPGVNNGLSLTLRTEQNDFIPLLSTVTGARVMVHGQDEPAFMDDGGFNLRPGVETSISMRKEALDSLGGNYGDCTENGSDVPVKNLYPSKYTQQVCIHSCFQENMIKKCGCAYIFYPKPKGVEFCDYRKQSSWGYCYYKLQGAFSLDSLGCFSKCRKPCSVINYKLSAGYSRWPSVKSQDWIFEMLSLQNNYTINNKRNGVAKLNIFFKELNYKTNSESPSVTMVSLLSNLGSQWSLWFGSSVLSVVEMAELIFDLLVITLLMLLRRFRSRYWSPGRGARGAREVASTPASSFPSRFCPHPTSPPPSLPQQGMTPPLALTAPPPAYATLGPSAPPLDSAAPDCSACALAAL
T1 sequence (P37090 1-638 S518C): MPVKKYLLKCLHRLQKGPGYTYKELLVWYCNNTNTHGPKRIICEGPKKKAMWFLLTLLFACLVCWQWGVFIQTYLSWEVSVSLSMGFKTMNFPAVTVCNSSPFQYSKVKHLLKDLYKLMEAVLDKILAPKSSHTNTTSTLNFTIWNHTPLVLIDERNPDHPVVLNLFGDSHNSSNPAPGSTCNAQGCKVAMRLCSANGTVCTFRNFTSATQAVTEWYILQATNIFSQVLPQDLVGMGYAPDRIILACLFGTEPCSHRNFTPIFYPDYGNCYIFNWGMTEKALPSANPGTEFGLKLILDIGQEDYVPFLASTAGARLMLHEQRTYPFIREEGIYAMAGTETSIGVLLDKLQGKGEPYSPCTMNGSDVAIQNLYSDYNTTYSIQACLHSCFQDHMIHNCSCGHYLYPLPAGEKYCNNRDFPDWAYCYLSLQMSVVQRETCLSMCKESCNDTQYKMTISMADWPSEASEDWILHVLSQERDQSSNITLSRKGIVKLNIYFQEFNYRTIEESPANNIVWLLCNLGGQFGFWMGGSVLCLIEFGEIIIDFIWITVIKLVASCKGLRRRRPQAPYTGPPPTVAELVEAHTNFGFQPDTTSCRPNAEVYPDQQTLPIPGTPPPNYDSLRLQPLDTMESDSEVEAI
T1 sequence (P37091 1-650): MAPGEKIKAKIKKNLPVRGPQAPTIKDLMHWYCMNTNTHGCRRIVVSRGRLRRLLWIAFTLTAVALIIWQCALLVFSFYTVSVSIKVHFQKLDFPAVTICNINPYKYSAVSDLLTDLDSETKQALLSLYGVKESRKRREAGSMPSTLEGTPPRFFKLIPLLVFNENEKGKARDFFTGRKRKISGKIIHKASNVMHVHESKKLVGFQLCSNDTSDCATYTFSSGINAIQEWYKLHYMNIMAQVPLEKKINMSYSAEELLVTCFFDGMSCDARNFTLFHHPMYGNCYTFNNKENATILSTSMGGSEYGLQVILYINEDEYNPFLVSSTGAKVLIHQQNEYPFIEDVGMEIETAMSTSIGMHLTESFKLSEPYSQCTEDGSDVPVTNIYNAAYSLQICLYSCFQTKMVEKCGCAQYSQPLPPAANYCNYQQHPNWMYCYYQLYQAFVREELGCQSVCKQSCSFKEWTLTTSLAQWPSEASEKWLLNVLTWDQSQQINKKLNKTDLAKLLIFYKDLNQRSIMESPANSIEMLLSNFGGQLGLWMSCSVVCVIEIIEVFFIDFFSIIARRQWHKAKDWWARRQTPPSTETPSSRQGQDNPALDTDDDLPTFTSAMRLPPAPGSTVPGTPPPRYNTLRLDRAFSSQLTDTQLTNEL
Procedure: Oocyte studies. Xenopus laevis oocytes were harvested and injected as described (Donaldson, et al., J. Biol. Chem. 277:8338 (2002)). Defolliculated healthy stage V-VI oocytes were injected with 0.3 ng of cRNA of each ENaC subunit. Injected oocytes were kept in modified Barth's saline (in mM: 88 NaCl, 1 KCl, 2.4 NaHCO3, 0.3 Ca(NO3)2, 0.41 CaCl2, 0.82 MgSO4, and 15 HEPES, adjusted to pH 7.35 with Tris). Oocytes were studied 24 hr after injection using the two electrode voltage clamp technique as previously described (Donaldson, et al., J. Biol. Chem. 277:8338 (2002)). Oocytes were clamped at a holding potential of […]. The change in amiloride-sensitive whole cell current as an indicator of ENaC activity was determined by subtracting the corresponding current value measured in the presence of 10 μM amiloride from that measured before the application of amiloride.
The effect of SPLUNC1 on the number of ENaC channels in the plasma membrane was tested by expressing SPLUNC1 and αENaC in Xenopus oocytes. After surface biotinylation of αENaC, total lysate was prepared and lysate from 3-4 eggs was separated on a 10% gel.

[4] = molecular target: yfp-tagged αENaC stably expressed on JME nasal epithelial cells; experiment: fluorescence binding isotherm on polarized JME cells expressing yfp-αENaC, empty-vector cells as non-specific control, Hill fit
yfp-tagged αENaC stably expressed on JME nasal epithelial cells, sequence (P37088 whole entry): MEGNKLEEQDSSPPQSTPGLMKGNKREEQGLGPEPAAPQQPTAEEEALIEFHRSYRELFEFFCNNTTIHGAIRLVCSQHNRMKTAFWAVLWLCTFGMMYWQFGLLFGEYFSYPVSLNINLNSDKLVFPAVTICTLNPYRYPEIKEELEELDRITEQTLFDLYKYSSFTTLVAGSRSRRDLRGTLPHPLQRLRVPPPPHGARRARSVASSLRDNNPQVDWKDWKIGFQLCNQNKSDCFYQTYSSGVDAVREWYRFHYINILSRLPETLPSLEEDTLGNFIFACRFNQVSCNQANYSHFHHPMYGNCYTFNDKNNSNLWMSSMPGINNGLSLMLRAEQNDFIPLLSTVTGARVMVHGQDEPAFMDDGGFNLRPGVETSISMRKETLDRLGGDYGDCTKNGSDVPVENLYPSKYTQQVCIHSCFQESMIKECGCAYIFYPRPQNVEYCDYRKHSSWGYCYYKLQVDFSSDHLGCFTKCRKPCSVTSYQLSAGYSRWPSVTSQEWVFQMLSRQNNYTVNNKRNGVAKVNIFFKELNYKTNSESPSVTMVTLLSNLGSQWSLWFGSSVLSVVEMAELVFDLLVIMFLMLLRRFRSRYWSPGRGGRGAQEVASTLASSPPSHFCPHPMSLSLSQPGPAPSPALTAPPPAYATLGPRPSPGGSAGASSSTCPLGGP

[5] = tested on: T2, Recombinant SPLUNC1 (V5/6His-tagged, purified from HEK293 media)
T2 sequence: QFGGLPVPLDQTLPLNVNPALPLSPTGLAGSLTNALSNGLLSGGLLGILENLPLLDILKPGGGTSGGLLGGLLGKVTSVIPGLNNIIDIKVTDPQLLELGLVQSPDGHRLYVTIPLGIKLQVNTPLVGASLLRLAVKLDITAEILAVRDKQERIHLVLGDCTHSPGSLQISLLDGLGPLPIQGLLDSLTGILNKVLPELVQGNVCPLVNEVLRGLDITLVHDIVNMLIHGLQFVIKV

[6] = molecular target: αβγENaC expressed in Xenopus laevis oocytes (rat, UniProt P37089 1-698; P37090 1-638; P37091 1-650); experiment: cell-based or functional assay

ENaC endogenous to primary human bronchial epithelial cultures (human), sequence (P37088 whole entry, chain 1 of 3): as the sequence (P37088 whole entry) above
ENaC endogenous to primary human bronchial epithelial cultures (human), sequence (P51168 whole entry, chain 2 of 3, further chain): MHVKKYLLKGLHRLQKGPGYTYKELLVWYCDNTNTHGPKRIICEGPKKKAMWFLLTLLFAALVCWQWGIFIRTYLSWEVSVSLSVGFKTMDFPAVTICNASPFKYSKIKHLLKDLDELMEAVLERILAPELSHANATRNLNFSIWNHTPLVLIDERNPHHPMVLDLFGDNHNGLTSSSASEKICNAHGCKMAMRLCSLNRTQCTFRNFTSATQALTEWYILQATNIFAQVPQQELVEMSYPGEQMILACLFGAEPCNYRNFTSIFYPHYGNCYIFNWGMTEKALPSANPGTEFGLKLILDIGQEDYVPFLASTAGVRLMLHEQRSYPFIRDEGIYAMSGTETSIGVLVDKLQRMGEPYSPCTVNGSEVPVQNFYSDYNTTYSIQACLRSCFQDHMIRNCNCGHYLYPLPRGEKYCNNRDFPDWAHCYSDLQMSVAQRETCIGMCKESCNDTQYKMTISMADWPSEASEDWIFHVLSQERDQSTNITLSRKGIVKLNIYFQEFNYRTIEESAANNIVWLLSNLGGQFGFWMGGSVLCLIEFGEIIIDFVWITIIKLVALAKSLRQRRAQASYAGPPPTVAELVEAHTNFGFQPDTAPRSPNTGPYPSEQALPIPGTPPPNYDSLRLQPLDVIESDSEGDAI
ENaC endogenous to primary human bronchial epithelial cultures (human), sequence (P51170 whole entry, chain 3 of 3, further chain): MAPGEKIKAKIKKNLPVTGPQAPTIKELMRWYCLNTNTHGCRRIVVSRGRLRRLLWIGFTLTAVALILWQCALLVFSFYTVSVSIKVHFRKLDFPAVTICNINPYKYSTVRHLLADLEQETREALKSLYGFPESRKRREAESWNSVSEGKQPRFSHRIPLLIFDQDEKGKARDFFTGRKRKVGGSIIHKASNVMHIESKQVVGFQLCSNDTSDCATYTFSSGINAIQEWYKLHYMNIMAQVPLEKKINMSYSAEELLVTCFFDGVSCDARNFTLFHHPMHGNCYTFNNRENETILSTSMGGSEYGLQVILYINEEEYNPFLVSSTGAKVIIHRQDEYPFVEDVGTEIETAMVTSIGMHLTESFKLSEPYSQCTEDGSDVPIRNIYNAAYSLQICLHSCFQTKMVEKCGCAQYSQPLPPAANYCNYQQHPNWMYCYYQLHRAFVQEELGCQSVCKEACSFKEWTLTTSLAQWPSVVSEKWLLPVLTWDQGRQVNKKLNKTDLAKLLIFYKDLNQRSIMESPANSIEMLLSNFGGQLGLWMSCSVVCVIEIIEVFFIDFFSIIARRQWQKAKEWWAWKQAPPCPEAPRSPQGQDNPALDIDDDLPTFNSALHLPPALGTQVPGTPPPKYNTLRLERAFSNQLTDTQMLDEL

## Recombinant SPLUNC1 (V5/6His-tagged, purified from HEK293 media) (from UniProt Q9NP55 20-256)
[1]
  ENaC inhibition: 70%
  transepithelial electrical resistance: 33%
[2]
  decrease in ENaC currents (amiloride-sensitive whole cell current, oocytes): 70%

## C[N+](C)(C)CCSS(C)(=O)=O.[Br-] [MTSET, reference compound]
[3]
  ENaC Po: 1.0

## Texas red-labeled recombinant SPLUNC1 (from UniProt Q9NP55 20-256)
[4]
  Kd: 0.055 µg/mL

## trypsin
[5]
  cleavage of fluorogenic substrate BGAR-MCA by 1.0 or 0.3 U/ml trypsin: 50 ng/ml rSPLUNC1 had only a modest affect (˜10%) on the ability of either 1.0 or 0.3 U/ml trypsin to cleave a fluorogenic substrate

B1: V5-tagged SPLUNC1 expressed in Xenopus oocytes (other, not shown: small tags and cut ends)
chain: T2 sequence
[6]
  decrease in amiloride-sensitive ENaC current relative to control oocytes: ~70%
